# Assay results as given in article doi:10.1101/2021.11.03.467182.
# Target: SARS-CoV-2 NTD-RBD-foldon (SARS-CoV-2 (strain Wuhan-1/2020) | bacteriophage T4) (UniProt P0DTC2)
# Assay: SEC-MALS
substance,measurement,value
SARS-CoV-2 NTD-RBD-foldon (from UniProt P0DTC2 14-541),stoichiometry N,3
